Here are results for 4 molecules from PMC9481563, “Structural insights into the pSer/pThr dependent regulation of the SHP2 tyrosine phosphatase in insulin and CD28 signaling” (Nature Communications, 2022).

Where no end group is shown, it is not given here. [ ]: non-standard residue; d: D form. pY = N[C@@H](Cc1ccc(OP(=O)(O)O)cc1)C(=O)O; pT = C[C@@H](OP(=O)(O)O)[C@H](N)C(=O)O; pS = N[C@@H](COP(=O)(O)O)C(=O)O

Test in all cases: fluorescence polarisation; competitive titration: labelled CF-ppIRS1 and protein both fixed (50-80% saturation), unlabelled competitor peptide varied; triplicates; Kd from cubic fit
Common to all, as to conditions: both partners purified
On the technique in general: Polarisation of emitted light reports the rotation of a fluorescent probe.

The target of test [1] is T1, PIK3R1 (p85) C-terminal SH2 domain (614-724) (human, UniProt P27986 614-724).
T1 construct: PIK3R1 regulatory subunit of PI3K (p85), cSH2 domain, cloned from a HEK293T cDNA pool, UniProt P27986, residues 614-724; also called cSH2; PI3KR1 cSH2; source: E. coli BL21 (DE3), purified (Ni-NTA, anion exchange)
T1 sequence (P27986 614-724): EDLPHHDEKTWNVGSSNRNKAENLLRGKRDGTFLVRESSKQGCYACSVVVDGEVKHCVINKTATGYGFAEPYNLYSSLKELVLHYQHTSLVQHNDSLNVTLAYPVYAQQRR

Test [2] addresses T2, PIK3R1 (p85) N-terminal SH2 domain (321-433) (human, UniProt P27986 321-433).
T2 construct: PIK3R1 regulatory subunit of PI3K (p85), nSH2 domain, cloned from a HEK293T cDNA pool, UniProt P27986, residues 321-433; also called nSH2; PI3KR1 nSH2; source: E. coli BL21 (DE3), purified (Ni-NTA, anion exchange)

For test [3], the target named is T3, PTPRε first catalytic domain, inactive C335S mutant (107-399), MBP-tagged (human, UniProt P23469 107-399, C335S).
T3 construct: PTPRε receptor tyrosine phosphatase, first phosphatase domain, cloned from a HEK293T cDNA pool, UniProt P23469, residues 107-399; first cloned into pBH4 (N-terminal His6); also called receptor tyrosine phosphatase PTPRε; source: E. coli BL21 (DE3), purified (Ni-NTA, anion exchange)
T3 sequence (P23469 107-399 C335S): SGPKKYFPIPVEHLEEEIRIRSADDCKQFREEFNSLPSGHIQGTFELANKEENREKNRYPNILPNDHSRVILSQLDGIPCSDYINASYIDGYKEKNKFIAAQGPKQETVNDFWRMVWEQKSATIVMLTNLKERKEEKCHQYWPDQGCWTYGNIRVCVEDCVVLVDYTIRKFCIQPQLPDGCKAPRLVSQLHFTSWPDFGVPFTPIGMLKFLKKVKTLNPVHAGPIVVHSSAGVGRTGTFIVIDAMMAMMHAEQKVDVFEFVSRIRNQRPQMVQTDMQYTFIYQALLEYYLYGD

T2 sequence (P27986 321-433): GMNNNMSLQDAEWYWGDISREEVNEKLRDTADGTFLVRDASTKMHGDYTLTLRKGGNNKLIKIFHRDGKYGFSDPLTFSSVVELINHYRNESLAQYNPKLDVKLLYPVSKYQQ

B1: ppIRS1, IRS1 peptide dually phosphorylated (pY632 + pS636) (peptide)
peptide: GRKGSGD[pY]MPM[pS]PKS
notes: human IRS1, 2nd YxxMSP motif around Y632, 15 amino acids; also called pY632-pS636 peptide; dually phosphorylated model peptide; source: synthetic peptide, bought: GeneScript Inc
Consider B1, for which the binding result in test [1] and in test [2] was “binds” in each case.

B2: ppCD28, CD28 peptide dually phosphorylated (pY191 + pT195) (peptide)
peptide: RSRLLHSD[pY]MNM[pT]PRR
notes: human CD28 T-cell costimulatory receptor, cytoplasmic YMNMTP motif, 16 amino acids; also called pY191-pT195 peptide; source: synthetic peptide, bought: GeneScript Inc
Take B2: the binding result in test [1], in test [3] and in test [2] was “binds” throughout.

B3: p0IRS1, IRS1 peptide with phosphotyrosine only (pY632) (peptide)
peptide: GRKGSGD[pY]MPMSPKS
notes: human IRS1, 2nd YxxMSP motif around Y632, 15 amino acids; also called singly phosphorylated model peptide; pTyr peptide; source: synthetic peptide, bought: GeneScript Inc
As to B3, the binding result in test [1] and in test [2] was “binds” each time.

B4: p0CD28, CD28 peptide with phosphotyrosine only (pY191) (peptide)
peptide: RSRLLHSD[pY]MNMTPRR
notes: human CD28 T-cell costimulatory receptor, cytoplasmic YMNMTP motif, 16 amino acids; also called singly Tyr phosphorylated CD28 peptide; source: synthetic peptide, bought: GeneScript Inc
In the case of B4, the binding result in test [1], in test [3] and in test [2] was “binds” throughout.
